Values joined by “and” are separate entries in the source; they are usually repeats but may differ in a detail not shown here. Equal values may be shown once.
B1: MutS (natural protein, E. coli, UniProt P23909 1-853, looked up)
chain: MSAIENFDAHTPMMQQYLRLKAQHPEILLFYRMGDFYELFYDDAKRASQLLDISLTKRGASAGEPIPMAGIPYHAVENYLAKLVNQGESVAICEQIGDPATSKGPVERKVVRIVTPGTISDEALLQERQDNLLAAIWQDSKGFGYATLDISSGRFRLSEPADRETMAAELQRTNPAELLYAEDFAEMSLIEGRRGLRRRPLWEFEIDTARQQLNLQFGTRDLVGFGVENAPRGLCAAGCLLQYAKDTQRTTLPHIRSITMEREQDSIIMDAATRRNLEITQNLAGGAENTLASVLDCTVTPMGSRMLKRWLHMPVRDTRVLLERQQTIGALQDFTAGLQPVLRQVGDLERILARLALRTARPRDLARMRHAFQQLPELRAQLETVDSAPVQALREKMGEFAELRDLLERAIIDTPPVLVRDGGVIASGYNEELDEWRALADGATDYLERLEVRERERTGLDTLKVGFNAVHGYYIQISRGQSHLAPINYMRRQTLKNAERYIIPELKEYEDKVLTSKGKALALEKQLYEELFDLLLPHLEALQQSASALAELDVLVNLAERAYTLNYTCPTFIDKPGIRITEGRHPVVEQVLNEPFIANPLNLSPQRRMLIITGPNMGGKSTYMRQTALIALMAYIGSYVPAQKVEIGPIDRIFTRVGAADDLASGRSTFMVEMTETANILHNATEYSLVLMDEIGRGTSTYDGLSLAWACAENLANKIKALTLFATHYFELTQLPEKMEGVANVHLDALEHGDTIAFMHSVQDGAASKSYGLAVAALAGVPKEVIKRARQKLRELESISPNAAATQVDGTQMSLLSVPEETSPAVEALENLDPDSLTPRQALEWIYRLKSLV

Tests used:
MutS = target: B1; experiment: atomic force microscopy
atomic force microscopy = target: the molecule itself; experiment: atomic force microscopy

binding result (MutS)	Binder	stoichiometry N (atomic force microscopy)
binds	his-MutL (natural protein, E. coli, UniProt P23367 1-615, looked up) MPIQVLPPQLANQIAAGEVVERPASVVKELVENSLDAGATRIDIDIERGGAKLIRIRDNGCGIKKDELALALARHATSKIASLDDLEAIISLGFRGEALASISSVSRLTLTSRTAEQQEAWQAYAEGRDMNVTVKPAAHPVGTTLEVLDLFYNTPARRKFLRTEKTEFNHIDEIIRRIALARFDVTINLSHNGKIVRQYRAVPEGGQKERRLGAICGTAFLEQALAIEWQHGDLTLRGWVADPNHTTPALAEIQYCYVNGRMMRDRLINHAIRQACEDKLGADQQPAFVLYLEIDPHQVDVNVHPAKHEVRFHQSRLVHDFIYQGVLSVLQQQLETPLPLDDEPQPAPRSIPENRVAAGRNHFAEPAAREPVAPRYTPAPASGSRPAAPWPNAQPGYQKQQGEVYRQLLQTPAPMQKLKAPEPQEPALAANSQSFGRVLTIVHSDCALLERDGNISLLSLPVAERWLRQAQLTPGEAPVCAQPLLIPLRLKVSAEEKSALEKAQSALAELGIDFQSDAQHVTIRAVPLPLRQQNLQILIPELIGYLAKQSVFEPGNIAQWIARNLMSEHAQWSMAQAITLLADVERLCPQLVKTPPGGLLQSVDLHPAIKALKDE	–
–	B1	2 and 4
